From patent US20250296973A1, “TREATMENT METHOD USING MAZDUTIDE” (Innovent Biologics (Suzhou) Co., Ltd., priority 2022, published 2025)
Starred links: 1 amine or outer side, 2 acyl side, 3 side chain; linkers in the order of their positions; H or OH if unused. Non-standard residues stand in square brackets, D forms with d. Groups on a side chain read outwards from the residue. No end group written: not given here. *: point of attachment. C20 diacid = O=C(O)CCCCCCCCCCCCCCCCCCC(=O)*; γGlu = O=C(O)[C@H](CCC(=O)[*:2])N[*:1]; AEEA = NCCOCCOCC(=O)O; Aib = CC(C)(N)C(=O)O

Tests used:
[1] = Clinical trial of mazdutide dosing regimen (Example 1, 5 cohorts, overweight or obese subjects); format: in vivo, human; details: for least squares mean of percent change from baseline in body weight: sc once weekly, after 12 weeks
Description: The contents in the vial were reconstituted in sterile water for injection to give a clear solution of mazdutide.
• 1. Aged 18-75 years (inclusive), male or female. • 2. For obesity, BMI≥28.0 kg/m^2; for overweight, 24≤BMI<28.0 kg/m^2 with at least one of the following: i, increased appetite, intolerable hunger before meals, and increased food consumption; ii, comorbidity with one or more of pre-diabetes (impaired fasting glucose and/or impaired glucose tolerance), hypertension, dyslipidemia, and fatty liver (within 6 months before the screening); iii, comorbidity with weight-bearing joint pain; iv, obesity-related dyspnea or obstructive sleep apnea syndrome. • 3. Weight change <5% after at least 12 weeks of diet/exercise weight control alone at the time of screening.
• 1. Use of any of the following drugs or treatments before the screening: • 1) previous use of either GLP-1 receptor (GLP-1R) agonists or GLP-1R/GCGR agonists; • 2) use of drugs that may have an effect on body weight within 3 months before the screening, including: systemic steroid hormone therapy (intravenous, oral, or intraarticular administration), metformin, SGLT2 inhibitors, thiazolidinediones (TZD), tricyclic antidepressants, psychotropic agents, or sedatives (e.g., imipramine, amitriptyline, mirtazapine, paroxetine, phenelzine, chlorpromazine, thioridazine, clozapine, olanzapine, valproic acid, valproic acid derivatives, and lithium salts), and the like; • 3) use of Chinese herbal medicines or health care products that may have an effect on body weight within 3 months before the screening; • 4) previous or current use of weight-loss drugs within 3 months before the screening, such as: sibutramine hydrochloride, orlistat, phentermine, phenylpropanolamine, mazindol, phentermine, amfepramone, lorcaserin, compounded phentermine/topiramate, compounded […], etc.; • 5) participation in other clinical trials (reception of the test drug treatment) within 3 months before the screening. • 2. […] Alcohol abuse is defined as: over 21 units for men or over 14 units for women weekly on average, or unwillingness to cease drinking within 24 hours before dosing and throughout the study period (one unit=360 mL of beer, or 150 mL of wine, or 45 mL of distilled spirits); • 21) drug abuse and positivity in a urine test for drugs at the time of screening. • 3. Any one of the laboratory tests meets the following criteria (those of proper reasons at the time of screening can be re-examined within one week, and the reason for retesting should be documented by the investigator): • 1) serum calcitonin ≥15 ng/L at the time of screening; • 2) at the time of screening, alanine aminotransferase ≥2.0×ULN and/or aspartate aminotransferase ≥2.0×ULN and/or total bilirubin ≥1.0×ULN and/or alkaline phosphatase ≥2.0×ULN; • 3) glomerular filtration rate eGFR<60 mL/min/1.73 m^2 at the time of screening, as estimated using the CKD-EPI equation; • 4) abnormal thyroid function (FT3, FT4, or TSH) at the time of screening; • 5) fasting triglyceride >5.64 mmol/L (500 mg/dL) at the time of screening: if the patient is receiving a lipid-regulating treatment, the dose of the treatment must be stable for 30 days before the screening; • 6) blood amylase or lipase >2.0×ULN at the time of screening; • 7) an international normalized ratio (INR) of prothrombin time greater than the upper limit of the normal range at the time of screening. • 4. Heart rate <50 beats/min or >90 beats/min as measured by 12-lead electrocardiogram (ECG) at the time of screening. • 5. Clinically significant abnormality in 12-lead ECG at the time of screening: atrioventricular block degree II or degree III, long QT syndrome or QTcF>450 ms (see Attachment 3 for the formula), PR interval <120 ms or PR interval >220 ms, QRS>120 ms, left or right bundle branch block, pre-excitation syndrome or severe arrhythmia requiring treatment in the absence of cardiac pacemaker. • 6. […]

[2] = 3.0-6.0-9.0 mg QW sc, after 24 consecutive weeks

With “mazdutide (H[Aib]QGTFTSDYSKYLDEKKAK([AEEA-AEEA-γGlu-C20 diacid])EFVEWLLEGGGPSSG-NH2; N-terminus assumed; SMILES CC(C)C[C@H](NC(=O)[C@H](CC(C)C)NC(=O)[C@H](Cc1c[nH]c2ccccc12)NC(=O)[C@H](CCC(=O)O)NC(=O)[C@@H](NC(=O)[C@H](Cc1ccccc1)NC(=O)[C@H](CCC(=O)O)NC(=O)[C@H](CCCCNC(=O)COCCOCCNC(=O)COCCOCCNC(=O)CC[C@H](NC(=O)CCCCCCCCCCCCCCCCCCC(=O)O)C(=O)O)NC(=O)[C@H](C)NC(=O)[C@H](CCCCN)NC(=O)[C@H](CCCCN)NC(=O)[C@H](CCC(=O)O)NC(=O)[C@H](CC(=O)O)NC(=O)[C@H](CC(C)C)NC(=O)[C@H](Cc1ccc(O)cc1)NC(=O)[C@H](CCCCN)NC(=O)[C@H](CO)NC(=O)[C@H](Cc1ccc(O)cc1)NC(=O)[C@H](CC(=O)O)NC(=O)[C@H](CO)NC(=O)[C@@H](NC(=O)[C@H](Cc1ccccc1)NC(=O)[C@@H](NC(=O)CNC(=O)[C@H](CCC(N)=O)NC(=O)C(C)(C)NC(=O)[C@@H](N)Cc1c[nH]cn1)[C@@H](C)O)[C@@H](C)O)C(C)C)C(=O)N[C@@H](CCC(=O)O)C(=O)NCC(=O)NCC(=O)NCC(=O)N1CCC[C@H]1C(=O)N[C@@H](CO)C(=O)N[C@@H](CO)C(=O)NCC(N)=O)” the “TEAEs resulting in permanent drug withdrawal” value ([1]; all 5 cohorts) was “no TEAEs resulting in permanent drug withdrawal occurred”, the “severe TEAEs” value ([1]; all 5 cohorts) was “no severe TEAEs were reported” and the severe hypoglycemic events ([1]; all 5 cohorts) was “no severe hypoglycemic events occurred”. For the same substance, the “severity of treatment emergent adverse events (TEAEs)” value ([1]; all 5 cohorts) was “Most treatment emergent adverse events (TEAEs) were mild”, the “treatment emergent serious adverse events (TESAEs)” value ([1]; all 5 cohorts) was “no treatment emergent serious adverse events (TESAEs) occurred” and the “least squares mean of percent change from baseline in body weight” value (“least squares mean of percent change” below) ([1]; cohort 2: 1.5 mg 4 wk + 3.0 mg 4 wk + 4.5 mg 4 wk) was −6.40%. The “least squares mean of percent change” value ([1]; cohort 3: 2.0 mg 4 wk + 4.0 mg 4 wk + 6.0 mg 4 wk) was −6.05%, the “least squares mean of percent change” value ([1]; cohort 5: 3.0 mg 4 wk + 6.0 mg 4 wk + 9.0 mg 4 wk) was −11.7% and the “weight loss effect at week 12 in indirect comparison with similar drugs” value ([1]; cohort 5 regimen vs 2.4 mg Semaglutide and 10 mg or 15 mg Tirzepatide regimens, FIG. 6) was “particularly pronounced weight loss effect”. For the same substance, the “improvement of blood pressure, blood lipid and serum uric acid levels” value ([1]; different doses in 5 cohorts, FIGS. 3-5 for cohorts 4 and 5) was “good beneficial effects”, the “subjects with body weight reduced by at least 5% from baseline” value [2] was 81.7% and the “subjects with body weight reduced by at least 10% from baseline” value [2] was 65.0%. For the same substance, the “subjects with body weight reduced by at least 15% from baseline” value [2] was 31.7%, the “subjects with body weight reduced by at least 20% from baseline” value [2] was 21.7% and the “dropout rate of the treatment group” value (human, in vivo) was “lower than that of the placebo group overall”. For the same substance, the “early termination of treatment due to adverse events” value (human, in vivo) was “no subject in the treatment group has terminated treatment in advance due to adverse events”, the “most common treatment emergent adverse events” value (human, in vivo) was “gastrointestinal-related adverse events” and the serious adverse events (human, in vivo) was “no serious adverse event has occurred”.
